In paper PMC8549523, “Human AdV-20-42-42, a Promising Novel Adenoviral Vector for Gene Therapy and Vaccine Product Development” (Journal of Virology, 2021) one finds Kd data, which are given here for one molecule.

This assay has as its target hexon protein of HAdV-20-42-42 (human adenovirus HAdV-20-42-42 (strain …)). In words: SPR; affinity and interaction half-life told as data not shown; CD46 immobilised, hexon as analyte. To be noted: both partners purified. In general terms: Surface plasmon resonance follows binding to a sensor surface in real time, without labels.

B1: CD46 (receptor)
chain: CEEPPTFEAMELIGKPKPYYEIGERVDYKCKKGYFYIPPLATHTICDRNHTWLPVSDDACYRETCPYIRDPLNGQAVPANGTYEFGYQMHFICNEGYYLIGEEILYCELKGSVAIWSGKPPICEKVLCTPPPKIKNGKHTFSEVEVFEYLDAVTYSCDPAPGPDPFSLIGESTIYCGDNSVWSRAAPECKVVKCRFPVVENGKQISGFGKKFYYKATVMFECDKGFYLDGSDTIVCDSNSTWDPPVPKCLKVLPPSSTKPPALSHSVSTSSTTKSPASSASGPRPTYKPPVSNYPGYPKPEEGILDSLD
One may read the Kd as the concentration at which binding is half-saturated. The molecule B1 returned a Kd of 13.5 µM.
